Data on 1 molecule can be found in patent publication US20240018513A1, “SYNTHETIC INTRONS FOR TARGETED GENE EXPRESSION” (FRED HUTCHINSON CANCER CENTER, priority 2020, published 2024).

Holding throughout (assay type): cell-based
One data set has as its system WT K562 cells. Nature of the data set: Mini-screen: pooled synthetic intron mini-library in HSV-TK, GCV treatment, full-length intron sequencing from genomic DNA. The following applies: genotype WT (SF3B1+/+) K562; GCV 100 ug/mL; day 6; vector hPGK-PuroR-P2A-HSV-TK. The source says: (§1) Therefore, a massively parallel splicing assay was developed to map and functionally interrogate key sequence features within the synthetic intron. First, a pilot mini-library of eight synthetic introns was synthesized, seven of which were much shorter (lengths of 100-158 nt) than the parent synthetic intron (synMTERFD3i1-250), and each with one or more perturbations to potentially critical features (FIG. 2E). This mini-library was cloned into HSV-TK, introduced into WT or SF3B1-mutant K562 cells with a lentiviral vector at a low multiplicity of infection, and treated with GCV. Relative depletion of each construct was measured by high-throughput sequencing of the entire introns from genomic DNA after six days of treatment (TABLE 1).
(§2) Each synthetic intron used in the mini-library was ordered individually as a gBlock (Integrated DNA Technologies), consisting of the desired intron flanked by homology arms for cloning (5′ arm: […] (SEQ ID NO:158); 3′ arm: […] (SEQ ID NO:159; TABLE 3). The gBlocks were then mixed in equal proportions before being cloned into hPGK-PuroR-P2A-HSV-TK using a previously published strategy for pooled cloning (Thomas, J. D. et al. RNA isoform screens uncover the essentiality and tumor-suppressor activity of ultraconserved poison exons. Nature genetics 52, 84-94 (2020), incorporated herein by reference in its entirety). This intron mix was then amplified using NEBNext High Fidelity Ready Mix (New England Biolabs) and purified using 1.8×AMPure XP SPRI beads (Beckman Coulter). The backbone for the library was amplified using Q5 polymerase (New England Biolabs). The library was transformed and amplified using Endura ElectroCompetent Cells (Lucigen, 60242-2) and large LB plates. The library was maxiprepped using a Macherey-Nagel MaxiPrep kit (Thermo Fisher Scientific, Cat 740414.10).
(§3) WT or SF3B1-mutant K562 cells were infected with lentivirus encoding the mini-library at an MOI of 0.3 and untreated or treated with GCV (100 ug/mL) for 6 days. Genomic DNA was collected at day 6 and the resulting Illumina libraries were sequenced with 2×150 bp reads (Illumina MiSeq). Depletion/enrichment of each construct was estimated as follows. For each sample, reads were normalized to the total reads mapped. The relative fraction of reads mapping to each intron was then estimated by dividing the numbers of normalized reads mapped to an intron by the total reads mapped in the sample. The standard deviation was calculated using the sample proportion P for each intron (σ=sqrt [P(1−P)/n]). A fold-change was calculated for each intron by dividing the proportion of the intron in the treated GCV samples by the fraction of the intron in the untreated samples. Error propagation was used to estimate the standard deviation. The final relative fold-changes were computed by normalizing fold-changes such that the fold-change of synMTERFD3i1-250 in the pilot screen was identical to the experimentally measured fold-change in a single-construct experiment (FIG. 2C, 100 μg/mL of GCV).

Another data set relates to SF3B1-mutant K562 cells. The description is as above.
Text: as §1, §2, §3

For data set [1], the system named is isogenic WT or SF3B1-mutant K562 cells. In words: Fluorescent reporter (mEmerald interrupted by synthetic intron, mCardinal control), flow cytometry. The text has this: These six endogenous introns served as starting points for the development of synthetic introns that functioned as compact and modular molecular switches. […] These choices were guided by the increased complexity of the 3′ss versus 5′ss, SF3B1's functional role in 3′ss recognition, and the importance of exon length in splicing. Each split mEmerald sequence was cloned into a vector with constitutive expression of the non-overlapping fluorophore mCardinal (FIG. 1E). The resulting vectors permitted quantitative assessment of mutation-dependent protein production by measuring the ratio of mEmerald to mCardinal in cells with or without an SF3B1 mutation via flow cytometry.
Each construct was transfected into isogenic WT or SF3B1-mutant K562 cells and mutation-dependent splicing and protein production was measured. […] Mutation-dependent protein production arose from mutation-dependent splicing changes, as designed (FIGS. 6G and 6H). These proof-of-principle studies confirmed the feasibility of using synthetic introns for mutation-dependent gene expression. […]

For data set [2] the test system is unchanged. Nature of the data set: Single-construct cell viability (CellTiter-Glo, ATP) of cells expressing HSV-TK with synthetic intron, GCV treatment. The following applies: 0-100 μg/mL GCV, 3 days. For orientation: In ATP-based viability assays light output follows the ATP content of the culture.
Text: This split HSV-TK sequence or an intronless HSV-TK was cloned into a lentiviral expression vector. Isogenic WT or SF3B1-mutant K562 cells were infected. Positive integrants were selected and treated with GCV (FIG. 2B).
Stable cell lines were made by transducing K562 or MCF10A cells with lentivirus at multiplicities of infection (MOIs) of 1 (FIGS. 2C, 2G, and 2H), 0.3 (mini-library), and 0.1 (full library). Positive integrants were selected by treating with puromycin (hPGK-PuroR-P2A-HSV-TK) or flow sorting for mCherry (hPGK-HSV-TK-P2A-mCherry).
Cell viability was measured for single-construct experiments in cell culture by the CellTiter-Glo Luminescent Cell Viability Assay (Promega). For FIG. 2C, K562 cells expressing HSV-TK with the indicated synthetic introns were seeded at a density of 10,000 cells/100 μL/well in a 96-well plate in biological triplicate, and then treated with 0-100 μg/mL GCV or untreated (negative control). Viability measured after 3 days of treatment. For FIG. 2G, K562 cells expressing HSV-TK with the indicated synthetic introns were seeded at a density of 5,000 cells/100 μL/well in 96-well plate in biological triplicate, and then treated with 100 μg/mL GCV or PBS (negative control). Viability was measured after 11 days of treatment.

B1: intron_control: 250 nt parent synthetic intron from MTERFD3 intron 1 (first 100 and last 150 nt); SEQ ID NO 63/71 (nucleic acid)
DNA 1: GTGAGTCGCCCCCTTCCTCTGCTCCTGGGCGTGTTCCTCACCAGCGGCGCCGCAGCGGTCAGGGCCCGCAAAACCCCACGCCTCGCCAGACGCTCAGCTCCAGGAAGCAAATGCAGCTGGTGCAGGAGAGGGAAATGGGAATTAGGGTGGTGGCAGAGCCCAAAGAGGCCTTGTAGGCCATGGTAAGGCATTTCTATGTTTTATTTTACTTTGTCTTTATCCTAAAATGCCATTGGCAAGTTTATTGCAG
DNA 2: GTGAGTCGCCCCCTTCCTCTGCTCCTGGGCGTGTTCCTCACCAGCGGCGCCGCAGCGGTCAGGGCCCGCAAAACCCCACGCCTCGCCAGACGCTCAGCTCCAGGAAGCAAATGCAGCTGGTGCAGGAGAGGGAAATGGGAATTAGGGTGGTGGCAGAGCCCAAAGAGGCCTTGTAGGCCATGGTAAGGCATTTCTATGTTTTATTTTACTTTGTCTTTATCCTAAAATGCCATTGGCAAGTTTATTGCAG
Regarding B1, the “fold-change (estimated fold-change in intron abundance in gDNA)” value in the data set on WT K562 cells is listed as 0.96; in the data set on SF3B1-mutant K562 cells (genotype K700E (SF3B1+/K700E) K562, GCV 100 ug/mL, day 6, vector hPGK-PuroR-P2A-HSV-TK), 0.23. Moreover, the “depletion / mutation responsiveness in mini-screen” value in the data set on SF3B1-mutant K562 cells (SF3B1-mutant vs WT K562, GCV, six days) is reported as “markedly depleted in SF3B1-mutant, but not WT, cells”. The mutation-dependent specificity in data set [1] is given as 2 fold. Also, the “viability upon GCV treatment” value in data set [2] (SF3B1-mutant K562 cells) is “a rapid and dose-dependent loss of viability, indistinguishable to that caused by intronless HSV-TK”; in data set [2] (WT K562 cells), “no significant differences in viability from untransduced cells”.
